These are literature values, as cited in article PMC3249237.

For the data set, the target named is LRP6 E1E2 (Homo sapiens) (UniProt O75581).
LRP6 E1E2 (Homo sapiens), sequence (O75581 20-630): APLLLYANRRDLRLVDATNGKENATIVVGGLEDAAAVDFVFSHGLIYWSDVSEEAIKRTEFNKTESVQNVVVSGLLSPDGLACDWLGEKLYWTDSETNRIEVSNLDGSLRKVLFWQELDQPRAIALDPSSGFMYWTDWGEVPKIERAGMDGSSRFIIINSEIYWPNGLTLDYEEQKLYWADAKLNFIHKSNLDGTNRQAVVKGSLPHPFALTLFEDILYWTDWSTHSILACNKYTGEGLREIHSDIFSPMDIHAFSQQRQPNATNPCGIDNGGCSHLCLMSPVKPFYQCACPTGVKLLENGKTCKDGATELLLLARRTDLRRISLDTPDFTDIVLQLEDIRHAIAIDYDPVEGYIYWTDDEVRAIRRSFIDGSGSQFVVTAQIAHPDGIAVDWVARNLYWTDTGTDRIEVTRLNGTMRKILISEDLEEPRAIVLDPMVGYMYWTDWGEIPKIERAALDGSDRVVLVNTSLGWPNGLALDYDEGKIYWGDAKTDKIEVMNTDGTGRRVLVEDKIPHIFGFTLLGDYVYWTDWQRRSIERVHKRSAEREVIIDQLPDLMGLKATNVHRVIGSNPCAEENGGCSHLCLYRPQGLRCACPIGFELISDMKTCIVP

DKK1, sequence (O94907 32-266): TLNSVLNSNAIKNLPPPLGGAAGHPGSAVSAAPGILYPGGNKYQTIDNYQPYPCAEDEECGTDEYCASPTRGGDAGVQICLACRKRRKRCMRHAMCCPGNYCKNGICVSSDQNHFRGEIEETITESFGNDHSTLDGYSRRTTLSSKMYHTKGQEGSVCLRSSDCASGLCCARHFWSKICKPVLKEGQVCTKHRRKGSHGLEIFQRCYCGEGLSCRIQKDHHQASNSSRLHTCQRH

As usually defined, the Kd is the constant that tells how readily two partners part at equilibrium. Consider DKK1 (from UniProt O94907), for which the equilibrium dissociation constant (Kd) was 64 nM.
